Target: Sso7d-ΔTaq (wild-type fusion) G24W (Sso7d numbering; reverts the mutant fusion to wild type) (Sulfolobus solfataricus? / Thermus aquaticus?) (UniProt P19821)
Settings: PCR yield ratio primer 57F over 57F5/6, reverse primer 732R, annealing 64 C

Sequence of UniProt P19821 (P19821 whole entry, stated change not applied, the tested form may be a part): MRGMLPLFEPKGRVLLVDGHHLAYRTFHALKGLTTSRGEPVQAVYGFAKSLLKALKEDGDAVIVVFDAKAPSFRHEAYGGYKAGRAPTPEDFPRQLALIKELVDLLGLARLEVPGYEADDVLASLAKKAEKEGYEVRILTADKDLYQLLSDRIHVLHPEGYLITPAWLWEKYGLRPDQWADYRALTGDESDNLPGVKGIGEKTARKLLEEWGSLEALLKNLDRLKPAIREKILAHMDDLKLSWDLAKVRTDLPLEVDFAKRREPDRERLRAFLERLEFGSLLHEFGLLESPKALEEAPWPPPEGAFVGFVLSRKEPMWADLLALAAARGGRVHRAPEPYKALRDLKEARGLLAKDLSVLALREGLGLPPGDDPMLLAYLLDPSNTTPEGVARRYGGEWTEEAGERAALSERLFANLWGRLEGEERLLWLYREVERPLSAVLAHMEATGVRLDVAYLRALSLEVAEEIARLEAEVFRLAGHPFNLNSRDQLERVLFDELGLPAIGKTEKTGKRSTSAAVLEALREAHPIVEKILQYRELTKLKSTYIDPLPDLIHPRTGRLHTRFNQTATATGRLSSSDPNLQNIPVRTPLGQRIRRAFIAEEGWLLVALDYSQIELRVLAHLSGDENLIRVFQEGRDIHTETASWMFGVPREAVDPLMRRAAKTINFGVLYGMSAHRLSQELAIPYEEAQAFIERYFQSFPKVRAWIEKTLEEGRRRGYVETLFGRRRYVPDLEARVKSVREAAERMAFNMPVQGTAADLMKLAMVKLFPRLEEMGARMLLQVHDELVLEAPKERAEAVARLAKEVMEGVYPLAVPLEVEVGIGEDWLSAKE

For “TCCGCCCTTCTTCGTCATAACT (double strand) [mismatched primer 57F5/6 on lambda DNA]”, the PCR match/mismatch yield ratio (match/mismatch yield ratio) was 0.92.

— patent publication US20040081963
